The record followed here is patent publication US20200377551A1 (WAKE FOREST UNIVERSITY HEALTH SCIENCES, published 2020).

This assay concerns the target T1, Tom20 (UniProt Q15388 1-145).
T1 construct: Endogenous mitochondrial protein used as a specificity control in the MAVS co-IP
T1 sequence (looked up): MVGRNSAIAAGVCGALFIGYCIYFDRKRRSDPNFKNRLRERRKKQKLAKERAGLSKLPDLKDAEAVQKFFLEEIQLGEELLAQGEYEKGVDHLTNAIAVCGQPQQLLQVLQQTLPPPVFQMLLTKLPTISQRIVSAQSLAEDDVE
The experiment in a line: co-immunoprecipitation with MAVS antibody from HEK293 lysates, immunoblot (FIG. 2E).

B1: mitochondrial antiviral-signaling protein (MAVS) (other)
chain: MPFAEDKTYKYICRNFSNFCNVDVVEILPYLPCLTARDQDRLRATCTLSGNRDTLWHLFNTLQRRPGWVEYFIAALRGCELVDLADEVASVYESYQPRTSDRPPDPLEPPSLPAERPGPPTPAAAHSIPYNSCREKEPSYPMPVQETQAPESPGENSEQALQTLSPRAIPRNPDGGPLESSSDLAALSPLTSSGHQEKDTELGSTHTAGATSSLTPSRGPVSPSVSFQPLARSTPRASRLPGPTGSVVSTGTSFSSSSPGLASAGAAEGKQGAESDQAEPIICSSGAEAPANSLPSKVPTTLMPVNTVALKVPANPASVSTVPSKLPTSSKPPGAVPSNALTNPAPSKLPINSTRAGMVPSKVPTSMVLTKVSASTVPTDGSSRNEETPAAPTPAGATGGSSAWLDSSFENRGLGSELSKPGVLASQVDSPFSGCFEDLAISASTSLGMGPCHGPEENEYKSEGTFGIHVAENPSIQLLEGNPGPPADPDGGPRPQADRKFQEREVPCHRPSPGALWLQVAVTGVLVVTLLVVLYRRRLH
notes: Endogenous full-length MAVS in HEK293 lysates or on isolated mitochondria; also called MAVS protein
For B1, the binding result was “no binding”.
